Data as given in IntAct's records for PubMed 18835279.

B1: Tax1-binding protein 3 (Mus musculus), Q9DBG9 (parent)
chain: MSYTPGQPVTAVVQRVEIHKLRQGENLILGFSIGGGIDQDPSQNPFSEDKTDKGIYVTRVSEGGPAEIAGLQIGDKIMQVNGWDMTMVTHDQARKRLTKRSEEVVRLLVTRQSLQKAVQQSMLS

Variants of: B1
Conditions: with ctnb1_human CTNNB1, P35222
Chain of ctnb1_human CTNNB1, P35222 (P35222 whole entry): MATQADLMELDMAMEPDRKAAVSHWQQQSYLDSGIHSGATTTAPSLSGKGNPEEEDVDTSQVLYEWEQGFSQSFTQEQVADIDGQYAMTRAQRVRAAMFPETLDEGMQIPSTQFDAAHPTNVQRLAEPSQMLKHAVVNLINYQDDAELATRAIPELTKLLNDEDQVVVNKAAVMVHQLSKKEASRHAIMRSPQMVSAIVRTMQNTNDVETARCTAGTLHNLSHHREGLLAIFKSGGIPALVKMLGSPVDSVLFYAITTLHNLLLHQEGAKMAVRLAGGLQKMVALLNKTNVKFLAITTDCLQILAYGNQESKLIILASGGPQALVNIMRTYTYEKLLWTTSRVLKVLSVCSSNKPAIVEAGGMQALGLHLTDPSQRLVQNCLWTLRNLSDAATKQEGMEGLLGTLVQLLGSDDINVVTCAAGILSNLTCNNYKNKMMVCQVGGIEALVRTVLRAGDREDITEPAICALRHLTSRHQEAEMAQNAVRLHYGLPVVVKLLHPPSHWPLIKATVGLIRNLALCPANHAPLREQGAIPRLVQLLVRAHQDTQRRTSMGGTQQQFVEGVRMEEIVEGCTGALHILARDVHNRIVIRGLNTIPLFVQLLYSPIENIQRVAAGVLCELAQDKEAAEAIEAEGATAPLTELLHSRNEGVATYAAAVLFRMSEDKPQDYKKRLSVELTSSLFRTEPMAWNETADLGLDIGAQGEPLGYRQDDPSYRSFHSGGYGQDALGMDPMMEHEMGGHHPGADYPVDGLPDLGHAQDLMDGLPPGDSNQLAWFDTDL

| effect of a mutation on the interaction | Variant |
| --- | --- |
| decreasing interaction | P45S |
| decreasing interaction | P45A |

Variants of: B1
Conditions: with ctnb1_human CTNNB1, P35222
Remark: another data set of the same source

| effect of a mutation on the interaction | Variant |
| --- | --- |
| increasing interaction | P45A |
